Source: the supplement of paper PMC10567573

B1: PRKX (parent)
chain: KLLVVDRTRRLGNMKNGANDVKHH
B2: DVL3 (parent)
chain: FPELGYSYGGGSASSQHSEGSRSS
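Note: lentivirally expressed fusions sorted by FACS into six bins by GFP to DsRed ratio, PSI derived from sequencing read proportions per bin multiplied by bin number.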

Variants of: B1
Experiment: protein stability index of a GFP-peptide fusion (GPS, HEK-293T) (PSI 1-6); higher = more stable
Conditions: c terminus: a fixed tail appended
Work on K22W yielded a protein stability index of 2.13. In the case of K22S, the protein stability index is reported as 3.52. K22P showed a protein stability index of 3.02. Work on K22F yielded a protein stability index of 2.04. In the case of R9P, the protein stability index is reported as 3.45. Variant R9M has a protein stability index of 2.99. R9I showed a protein stability index of 2.73. R9H gave a protein stability index of 3.07. R9K gave a protein stability index of 2.99. Variant R9D has a protein stability index of 3.4. With R9A the protein stability index was 3.11. For R9T, the protein stability index was 3.21. R9W showed a protein stability index of 2.12. R9Q gave a protein stability index of 3.38. Work on R9Y yielded a protein stability index of 2.63. Variant R9S has a protein stability index of 3.33. R9F showed a protein stability index of 2.76. With R9L the protein stability index was 2.69. With R9E the protein stability index was 3.5. Work on R9V yielded a protein stability index of 2.6. Work on R9G yielded a protein stability index of 3.13. In the case of R9N, the protein stability index is reported as 2.81. In the case of R9C, the protein stability index is reported as 2.21. In the case of A18K, the protein stability index is reported as 3.21. For A18I, the protein stability index was 2.35. A18T showed a protein stability index of 3.23. A18C gave a protein stability index of 3.55. With A18L the protein stability index was 2.7. With A18Y the protein stability index was 2.29. For A18S, the protein stability index was 3.27. For A18Q, the protein stability index was 2.95. Variant A18W has a protein stability index of 2.2. For A18D, the protein stability index was 3.85. Variant A18H has a protein stability index of 3.34. With A18M the protein stability index was 2.16. A18P gave a protein stability index of 2.87. In the case of A18V, the protein stability index is reported as 2.63. Variant A18R has a protein stability index of 2.97. A18N showed a protein stability index of 3.19. Work on A18F yielded a protein stability index of 2.53. In the case of A18G, the protein stability index is reported as 3.27. A18E gave a protein stability index of 3.67. N16T gave a protein stability index of 3.25. In the case of N16E, the protein stability index is reported as 3.18. N16D showed a protein stability index of 2.85. For N16R, the protein stability index was 2.74. With N16F the protein stability index was 2.42. With N16S the protein stability index was 3.27. With N16I the protein stability index was 2.74. In the case of N16A, the protein stability index is reported as 2.54. Variant N16G has a protein stability index of 2.84. Work on N16W yielded a protein stability index of 2.26. For N16V, the protein stability index was 2.62. Work on N16H yielded a protein stability index of 2.85. For N16P, the protein stability index was 3.16. Variant N16Q has a protein stability index of 3.25. In the case of N16M, the protein stability index is reported as 2.26. In the case of N16Y, the protein stability index is reported as 2.38. N16C gave a protein stability index of 2.13. In the case of N16K, the protein stability index is reported as 3.19. N16L gave a protein stability index of 2.69. For D20T, the protein stability index was 2.65. D20S gave a protein stability index of 2.38. D20Q gave a protein stability index of 3.13. In the case of D20H, the protein stability index is reported as 2.89. Variant D20N has a protein stability index of 2.74. For D20G, the protein stability index was 3.27. D20E gave a protein stability index of 3.01. In the case of D20Y, the protein stability index is reported as 2.19. D20F gave a protein stability index of 2.13. With D20K the protein stability index was 2.55. Variant D20V has a protein stability index of 2.6. In the case of D20M, the protein stability index is reported as 2.71. Work on D20W yielded a protein stability index of 2.3. Variant D20C has a protein stability index of 2.33. D20P gave a protein stability index of 2.75. Work on D20I yielded a protein stability index of 2.09. D20A gave a protein stability index of 3.13. For D20R, the protein stability index was 2.53. Variant D20L has a protein stability index of 2.41. G12S gave a protein stability index of 3.02. With G12D the protein stability index was 3.12. With G12C the protein stability index was 2.84. In the case of G12M, the protein stability index is reported as 2.24. G12T gave a protein stability index of 2.95. For G12A, the protein stability index was 2.84. In the case of G12Y, the protein stability index is reported as 2.5. G12I showed a protein stability index of 2.04. For G12W, the protein stability index was 2.19. Work on G12Q yielded a protein stability index of 3.19. With G12N the protein stability index was 2.6. G12F showed a protein stability index of 2.51. For G12L, the protein stability index was 2.83. G12P gave a protein stability index of 3.19. Variant G12E has a protein stability index of 3.38. G12V gave a protein stability index of 2.67. With G12K the protein stability index was 2.48. G12H showed a protein stability index of 3. Work on G12R yielded a protein stability index of 2.67. L11M showed a protein stability index of 2.77. Variant L11Q has a protein stability index of 3.42. For L11D, the protein stability index was 3.84. In the case of L11C, the protein stability index is reported as 2.57. L11S gave a protein stability index of 3.27. Variant L11P has a protein stability index of 3.57. Variant L11I has a protein stability index of 3.22. With L11H the protein stability index was 3.64. In the case of L11Y, the protein stability index is reported as 3.1. L11N gave a protein stability index of 3.6. For L11A, the protein stability index was 3.23. Variant L11R has a protein stability index of 3.65. Variant L11K has a protein stability index of 2.93. In the case of L11W, the protein stability index is reported as 2.67. L11G gave a protein stability index of 3.21. In the case of L11V, the protein stability index is reported as 3.09. L11T showed a protein stability index of 3.47. L11F showed a protein stability index of 2.93. For L11E, the protein stability index was 3.7. Work on H23E yielded a protein stability index of 3.44. With H23Y the protein stability index was 2.35. Work on H23V yielded a protein stability index of 2.96. Work on H23P yielded a protein stability index of 3.37. Work on H23T yielded a protein stability index of 3.18. Variant H23F has a protein stability index of 2.53. With H23R the protein stability index was 2.44. For H23Q, the protein stability index was 2.69. Variant H23L has a protein stability index of 2.85. Variant H23W has a protein stability index of 3.4. Work on H23N yielded a protein stability index of 3.72. With H23I the protein stability index was 2.67. For H23C, the protein stability index was 2.94. H23M showed a protein stability index of 2.33. In the case of H23D, the protein stability index is reported as 3.68. H23K gave a protein stability index of 3.4. Variant H23A has a protein stability index of 3.1. With H23S the protein stability index was 2.73. H23G gave a protein stability index of 2.92. In the case of T8W, the protein stability index is reported as 2.78. T8Y showed a protein stability index of 2.67.

Variants of: B2
Experiment: as above
Conditions: c terminus: a fixed tail appended
In the case of P2C, the protein stability index is reported as 1.99. Work on P2G yielded a protein stability index of 3.12. For P2K, the protein stability index was 4.49. With P2E the protein stability index was 4.66. In the case of P2D, the protein stability index is reported as 5.09. In the case of P2H, the protein stability index is reported as 2.1. P2F showed a protein stability index of 3.37. Work on P2A yielded a protein stability index of 2.87. With P2I the protein stability index was 2.07. Variant F1W has a protein stability index of 4.25. With F1R the protein stability index was 4.86. Work on F1H yielded a protein stability index of 4.96. Work on F1I yielded a protein stability index of 5.21. With F1T the protein stability index was 4.95. F1Y gave a protein stability index of 4. Variant F1E has a protein stability index of 5.18. In the case of F1K, the protein stability index is reported as 4.89. With F1S the protein stability index was 4.99. F1M showed a protein stability index of 4.38. F1C gave a protein stability index of 4.68. In the case of F1N, the protein stability index is reported as 5.32. In the case of F1D, the protein stability index is reported as 5.2. Variant F1L has a protein stability index of 4.22. Work on F1P yielded a protein stability index of 5.34. With F1V the protein stability index was 4.03. With F1Q the protein stability index was 5.03. F1G gave a protein stability index of 4.62. For F1A, the protein stability index was 5.09.
